{"source": "paper PMC12922752", "about": "(Science Advances, 2026)", "key": {"[1]": {"target": "Hsp70 nucleotide-binding domain (Hsp70NBD)", "assay": "ITC"}, "[2]": {"target": "Rpn1, human, recombinant full-length (human) (UniProt Q13200)", "sequence (Q13200 whole entry)": "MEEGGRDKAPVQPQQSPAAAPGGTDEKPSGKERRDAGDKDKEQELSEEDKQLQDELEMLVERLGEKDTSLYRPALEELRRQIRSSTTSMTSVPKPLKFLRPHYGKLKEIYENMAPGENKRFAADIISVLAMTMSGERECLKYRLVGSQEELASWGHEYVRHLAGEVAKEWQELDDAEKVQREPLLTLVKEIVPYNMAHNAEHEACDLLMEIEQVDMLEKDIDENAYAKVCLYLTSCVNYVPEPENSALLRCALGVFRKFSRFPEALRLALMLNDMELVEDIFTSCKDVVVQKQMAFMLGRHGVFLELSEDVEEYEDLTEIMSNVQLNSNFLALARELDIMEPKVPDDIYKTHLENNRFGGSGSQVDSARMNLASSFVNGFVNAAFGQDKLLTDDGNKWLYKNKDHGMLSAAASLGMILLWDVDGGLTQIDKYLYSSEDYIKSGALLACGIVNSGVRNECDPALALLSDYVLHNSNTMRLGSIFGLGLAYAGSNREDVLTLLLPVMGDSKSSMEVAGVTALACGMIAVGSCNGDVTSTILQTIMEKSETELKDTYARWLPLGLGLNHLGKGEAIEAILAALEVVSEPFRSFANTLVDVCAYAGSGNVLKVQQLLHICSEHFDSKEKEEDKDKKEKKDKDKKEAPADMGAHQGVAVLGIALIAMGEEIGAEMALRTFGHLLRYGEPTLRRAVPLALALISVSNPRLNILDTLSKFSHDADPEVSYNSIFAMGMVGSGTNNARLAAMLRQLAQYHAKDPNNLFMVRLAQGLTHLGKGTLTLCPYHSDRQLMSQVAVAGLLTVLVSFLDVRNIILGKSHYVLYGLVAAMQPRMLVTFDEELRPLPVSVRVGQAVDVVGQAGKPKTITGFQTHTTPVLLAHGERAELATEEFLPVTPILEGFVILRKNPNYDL", "assay": "ITC"}, "[3]": {"target": "Rpn1, human, recombinant full-length (human, UniProt Q13200 1-908)", "sequence (Q13200 whole entry)": "as above", "assay": "cross-linking"}}, "data": [{"molecule": "Bcl-2-associated anthanogene 1 (Bag1), full-length (natural protein)", "values": [{"measurement": "Kd", "setting": "[1]", "value": 50, "unit": "nM"}, {"measurement": "Kd", "setting": "[2]", "value": 500, "unit": "nM"}]}, {"molecule": "Rpt2 of the ATPase ring isolated from Saccharomyces cerevisiae (natural protein) MGQGVSSGQDKKKKKGSNQKPKYEPPVQSKFGRKKRKGGPATAEKLPNIYPSTRCKLKLLRMERIKDHLLLEEEFVSNSEILKPFEKKQEEEKKQLEEIRGNPLSIGTLEEIIDDDHAIVTSPTMPDYYVSILSFVDKELLEPGCSVLLHHKTMSIVGVLQDDADPMVSVMKMDKSPTESYSDIGGLESQIQEIKESVELPLTHPELYEEMGIKPPKGVILYGAPGTGKTLLAKAVANQTSATFLRIVGSELIQKYLGDGPRLCRQIFKVAGENAPSIVFIDEIDAIGTKRYDSNSGGEREIQRTMLELLNQLDGFDDRGDVKVIMATNKIETLDPALIRPGRIDRKILFENPDLSTKKKILGIHTSKMNLSEDVNLETLVTTKDDLSGADIQAMCTEAGLLALRERRMQVTAEDFKQAKERVMKNKVEENLEGLYL", "values": [{"measurement": "binding result", "setting": "[3]", "value": "binds"}]}]}
